From the DeepSol protein solubility set come the findings set out here.

The nature of the data set: soluble on expression in E. coli; label from the status in PepcDB or PDB records.
For “MSYYHHHHHHLESTSLYKKAGLQALLLEQQDGKTLASVQTLDESRLPEGDVTVDVHWSSLNYKDALAITGKGKIIRNFPMIPGIDFAGTVRTSEDPRFHAGQEVLLTGWGVGENHWGGLAEQARVKGDWLVAMPQGLDARKAMIIGTAGFTAMLCVMALEDAGVRPQDGEIVVTGASGGVGSTAVALLHKLGYQVVAVSGRESTHEYLKSLGASRVLPRDEFAESRPLEKQVWAGAIDTVGDKVLAKVLAQMNYGGCVAACGLAGGFTLPTTVMPFILRNVRLQGVDSVMTPPERRAQAWQRLVADLPESFYTQAAKEISLSEAPNFAEAIINNQIQGRTLVKVN”, the “soluble on expression in E. coli” value is “soluble”.

Turning to “SQIPLCANLVPVPITNATLDRITGKWFYIASAFRNEEYNKSVQEIQATFFYFTPNKTEDTIFLREYQTRQNQCFYNSSYLNVQRENGTVSRYEGGREHVAHLLFLRDTKTLMFGSYLDDEKNWGLSFYADKPETTKEQLGEFYEALDCLCIPRSDVMYTDWKKDKCEPLEKQHEKERKQEEGES”, the “soluble on expression in E. coli” value was “soluble”.

For “MSYRESRQRLERLTESPSHLTIWRRMQELSYESKFEYESFVSADGTKLHAKRSKKLDVKVIAGKSVIVGINESHREMRGEYDVKATVVGDADRDLSCF”, the “soluble on expression in E. coli” value is recorded as “not soluble”.

In the case of “MDPLSRDENYIQRLTPEMWREIKAASPEVTAEMLDDLKHGNTYYTGVETDKGVLIFSRDIIGEGQFSDYMYKYIENDFFASEFVLKSLAVHELRGWPSLMEGKLNRCHNRFGWWGDGETIRRAFQDRSVLKNVTDSETYDFTPPPHGRTITG”, the “soluble on expression in E. coli” value is “not soluble”.

Consider “GPGSMVLSSPVITLRRMVHFSSTPTSLHSRSSTSPLDALVDEVSSFIPATFTSIPQISRQLPPELMERVCDPVCGGLRSLLSRYAERFESKMIGQVHVVRSRLRQRESAAPCRRANAGAEVGYSFAVPSSPSGNAAAAASKSNSVDVQAVFTELQQLFPSYLVPVKALWTTVPEAEEQQVRARVLDALRSPQHRAWLTFHEHPAHCASHSTSADEAELTHVLEHGYVQLRLNPAAGDDRAAAPMPQSPNTRMAGHEVQPYEWYRVARVLPTTATELLFSGELQEQATLLLPPGRDVWHVLLSAPALFELRYAAPTTVDSGQQARVPTLSAEGSSLAPVCVKYDATPPPSLCASVYVRFRLEERFVPPDMAGAREESILRELETLTAERAASACGLSSRQRRRKRKLQRQLAYLRNPTPYFDERVLAQHLFDLLPLRDGVHQSALLGSLPQPAVQAFPQNVTELLQARNDLFQLSDVRHGILVRRADAPKVAQRSIESVTGEEILLHIFSSYSLRSDPQEGTTISRSLPRLPRLVRERLFTMQDIIAEVLLLYPDKVEVLADRSPSISSLSLSSSPHTSEADERALRELRTVRGRRDFLVPFRFVGEWQAKLTEKYTKQQTKDAVKSMRARQRSESSHRRPARY”, for which the “soluble on expression in E. coli” value is recorded as “not soluble”.

As to “RRRRPSSSRRLRGRGAAQMACPALGLEALQPLQPEPPPEPAFSEAQKWIEQVTGRSFGDKDFRTGLENGILLCELLNAIKPGLVKKINRLPTPIAGLDNIILFLRGCKELGLKESQLFDPSDLQDTSNRVTVKSLDYSRKLKNVLVTIYWLGKAANSCTSYSGTTLNLKEFEGLLAQMRKDTDDIESPKRSIRDSGYIDCWDSERSDSLSPPRHGRDDSFDSLDSFGSRSRQTPSPDVVLRGSSDGRGSDSESDLPHRKLPDVKKDDMSARRTSHGEPKSAVPFNQYLPNKSNQTAYVPAPLRKKKAEREEYRKSWSTATSPLGGERPFRYGPRTPVSDDAESTSMFDMRCEEEAAVQPHSRARQEQLQLINNQLREEDDKWQDDLARWKSRRRSVSQDLIKKEEERKKMEKLLAGEDGTSERRKSIKTYREIVQEKERRERELHEAYKNARSQEEAEGILQQYIERFTISEAVLERLEMPKILERSHSTEPNLSSFLNDPNPMKYLRQQSLPPPKFTATVETTIARASVLDTSMSAGSGSPSKTVTPKAVPMLTPKPYSQPKNSQDVLKTFKVDGKVSVNGETVHREEEKERECPTVAPAHSLTKSQMFEGVARVHGSPLELKQDNGSIEINIKKPNSVPQELAATTEKTEPNSQEDKNDGGKSRKGNIELASSEPQHFTTTVTRCSPTVAFVEFPSSPQLKNDVSEEKDQKKPENEMSGKVELVLSQKVVKPKSPEPEATLTFPFLDKMPEANQLHLPNLNSQVDSPSSEKSPVTTPQFKFWAWDPEEERRRQEKWQQEQERLLQERYQKEQDKLKEEWEKAQKEVEEEERRYYEEERKIIEDTVVPFTVSSSSADQLSTSSSMTEGSGTMNKIDLGNCQDEKQDRRWKKSFQGDDSDLLLKTRESDRLEEKGSLTEGALAHSGNPVSKGVHEDHQLDTEAGAPHCGTNPQLAQDPSQNQQTSNPTHSSEDVKPKTLPLDKSINHQIESPSERRKKSPREHFQAGPFSPCSPTPPGQSPNRSISGKKLCSSCGLPLGKGAAMIIETLNLYFHIQCFRCGICKGQLGDAVSGTDVRIRNGLLNCNDCYMRSRSAGQPTTL”, the “soluble on expression in E. coli” value is recorded as “soluble”.

With “RRAKALLDFERHDDDELGFRKNDIITIISQKDEHCWVGELNGLRGWFPAKFVEVLDERSKEYSIA”, the “soluble on expression in E. coli” value is given as “soluble”.

As for “MFLQHNNQLICNLEKMGLTENEAKAYVGLVSLGEATAREVHELTNVPRAKIYEVLKVLAKRGYLEVRQGSPTYFRAVDPKQVIGKIKDEFINCAIETLDQLNELSYELPRTSPVWCIQSEWGIKNRIREILNGVKEELIVFSSSPRFFQEFEAELKKLEKTCQLTFIISEPEKFESFPFEFRETTKEFREFLNNIVIDGIRYDEEFFMIADGKESIGVHSAGDKREAVVIKLPVVCYLQKMIYDRVLEPSFVKKNRKSA”, the “soluble on expression in E. coli” value was “not soluble”.

Consider “MTNNDTTLQLSSVLNRECTRSRVHCQSKKRALEIISELAAKQLSLPPQVVFEAILTREKMGSTGIGNGIAIPHGKLEEDTLRAVGVFVQLETPIAFDAIDNQPVDLLFALLVPADQTKTHLHTLSLVAKRLADKTICRRLRAAQSDEELYQIITDTEGTPDEA”, for which the “soluble on expression in E. coli” value was “soluble”.

As to “MCIGVPVQVISPGQWFAKCRDRHGELIDVDIRLVAPPLAGAWLLTFGGAARREMDEAEAAEVLAALDSLEQAMLTQSDPLTGFADLLSRTPELPEHLKK”, the “soluble on expression in E. coli” value is on record as “not soluble”.

Turning to “MTLLGIKLKQTQQLNQRLQQSLRVLQMSGIELEREVENWLSDNPLLERKDTDEFSDAEFSHYTAPARQIGGDEGEDMLSNIAGEQDFKQYLHAQVCEHPLSDQEAACVHILIDFLDEQGYLTDSIEDILDHTPLEWMLDEAMLQHALTALKKFDPAGVAAADLNESLILQIERLGECAAKPAALHIVRNALDSIDGNRSQTLARIKKHLPQTDSGTLEAALDLIASLNPFPAAGFASSTPTPYSDEALANLLAFRGMEVSRRTIAKYRESFEIPAAHKRKTAE”, the “soluble on expression in E. coli” value is given as “not soluble”.

With “MSRNPFDDDYRPSAASSTMPVKSYTTMGHYSGEDEADYYEREIEKTLQESLDSTERSRRHLENSEKIGTSTAQQLLEQREKLENTEKNLDEIHRTTQMTQRNLNSLKSFFGGMFKNKFTKKPQEPTETPTVPQSKSASRLSETATNLSSGGGSATFSGPSGQRTLTESSRSAIKGTRWEAMDNQIDENLDMMSANLRNLQRLGADLGKEVDSQNEMLDRIQYKAERNDGIVRDQDKQMQKILGTGASTSQTTAESLTPSMDTSTKMSLMMKATSLWK”, the “soluble on expression in E. coli” value was “not soluble”.

As for “MTDVKNDVNVSSVVDADGLIEGNYDQVVESFDDMELKEELLRGIYGFGFEKPSAIQKRAIVPCTTGKDVIAQAQSGTGKTATFSVSILQRIDHEDPHVQALVMAPTRELAQQIQKVMSALGEYLNVNILPCIGGTSVRDDQRKLEAGIHVVVGTPGRVGDMINRNALDTSRIKMFVLDEADEMLSRGFKDQIYEVFRSMPQDVQVVLLSATMPSEVLDVTNRFMRNPIRILVKKDELTLEGIRQFYINVQKDEWKFDCLCDLYNVVNVTQAVIFCNTRRKVDTLTEKMTENQFTVSCLHGDMDQAERDTIMREFRSGSSRVLITTDILARGIDVQQVSLVINYDLPSNRENYIHRIGRSGRFGRKGVAINFVTENDARQLKEIESYYTTQIEEMPESIADLI”, the “soluble on expression in E. coli” value is given as “not soluble”.

In the case of “MSDRQAALDMALKQIEKQFGKGSIMKLGEQAERKVSTVSSGSLALDVALGVGGYPRGRIIEIYGPESSGKTTVSLHAIAEVQRQGGQAAFIDAEHAMDPVYAQKLGVNIDELLLSQPDTGEQGLEIAEALVRSGAVDIIVIDSVAALVPKAEIEGDMGDSHVGLQARLMSQALRKLSGAINKSKTIAIFINQIREKVGVMFGNPETTPGGRALKFYSTVRLEVRRAEQLKQGNDIVGNKTKVKVVKNKVAPPFRVAEVDIMYGEGISREGEILDMASELDIVQKSGAWYSYNEERLGQGRENSKQFLKENTDLREEIAFFIREHHGISEDSGAEGMEDPNLLD”, the “soluble on expression in E. coli” value is “not soluble”.

As to “MVVSYSDSTPFGERISDSLKETQKLHTMQLNLGKVCNLACRHCHVEAGPNRREQMSQEVMKKALELFVRHGFETLDITGGAPEMNPHFEWLIHEGSKVASRLIVRTNLVILKESPWEHLAEFYAKHKVELVASLPEVSEEEVDRVRGRGVYGDSIEVIKRLNALGYGKNPDLKLDFVYNPSGPFLPPRVMELERLYKEQLFEKEEIFFHRLLSMNNIPIGRFRDSLERSGELLEYETLLRTHFNPSATPHLMCRSQISVSYEGRIYDCDFNQMLSLEAQGAKSLEEMLIQKSLKRRVVFGEHCYACTAGLGSSCQGVIAPEPL”, the “soluble on expression in E. coli” value is reported as “not soluble”.

For the sequence “AARPRKNNVSVPNLYPLYSRKVNKVYWRYKHPVTGKFHALGTNEAEAIAIATEANTRLAEQRTRQILAISDRIATSKGKAITTSTWLDRYQAIQDDRLKSGDIRLNTYKQKAKPVSLLRERAGMKLISAVDVRDIAQLLDEYIAAGRPRMAQVVRSVLIDVFKEAQHYGEVPPGYNPALATKQPRRKITRQRLSLEEWKKIFDIADATHRYMGNAMLLALVTGQRLGDISRMKFSDIWDDHLHVIQEKTGSKIAIPLSLRLNAINWSLRDVVARCRDYAVSAYLVHFFRSTSQAERGAQVKANTLTMNFSKARDLARIDWGEGSPATFHEQRSLSERLYKEQGLDTQKLLGHKTQQQTDRYHDDRGKGWSKVAL”, the “soluble on expression in E. coli” value is listed as “not soluble”.

For “MLRRGYKASERRRHLSERLSWHQDQALSSSIYLLREMGPTGFLLREEEPEYMDFRVFLGNPHVCNCSTFPKGGELCKHICWVLLKKFELPRNHESALQLGLGEREISDLLRGIHRVQTPQPGTNDENEHVEEDGYIKQKEIDSEDICSICQELLLEKKLPVTFCRFGCGNSIHIKCMKILANYQSTSNTSMLKCPLCRKEFAPLKLILEEFKNSSKLVAAAEKERLDKHLGIPCNNCKQFPIEGKCYKCTECIEYHLCQECFDSYCHLSHTFTFREKRNQKWRSLEKRADEVVKYIDTKNETEEKMSHFQEKQGQVYTPKHIVRSLPLQLITKNSKLLAPGYQCLLCLKAFHLGQHTRLLPCTHKFHRKCIDNWLFHKCNSCPIGGQVIYNPLTWKNSAVNGQAHQSVSNRDIIHLSKQKEPDLFIPGTGLVLKQNRLGILPSIPQCNFDELNTPQSPKDAYENTTIDNLCSIKLDNSNSKKLTYEYKISQHFPRYLQDLPTVSFGKIPSQTLLPPIVHKNIVCPTAMESPCISGKYHTSLSRVTKGCKCNNHNLKKTPATKIREDNKRSTLLPEDFNLIVNWSTAKLSLSKRYSNCMGEITRKCSHLSRQPVSHSVNTKSTELSLIIEGVQL”, the “soluble on expression in E. coli” value was “soluble”.

Take “MMLYFITFREARVLLKSRDLALINVDLMKTGKKIRVRVSKDYVEFPDGSRVKKEIIKRIAEDEGNVYFVRDGEVFKAAIAGEHFYKLVPTIPPTIEINGIRMHRTKGTDPLKDTIAKVNTVKPREGEVVLDTCMGLGYTAIESAKRGARVITIEKDPNVIELAKINPWSRELFESPKIKILQGDSFDLIKKFEDESFDVIIHDPPRFSLAGELYSEEFYMEMFRVLKPGGRLFHYVGNPGKRYRGLDLQKGVMERLRRVGFMKVRRVQEALGVFALKPSLE”: the “soluble on expression in E. coli” value is on record as “soluble”.
